According to patent US20170281807A1 (UNIVERSITY OF TENNESSEE RESEARCH FOUNDATION, published 2017):
Ends that are not written are not given here.

B1: peptide p66 (11-1F4 peptope) (peptide)
peptide: KAQKAQAKQAKQAQKAQKAQAKQAKQAQKAQKAQAKQAKQSVTVVTKHYAAFPENLLI
modifications: also: 125I-labeled in pull-down and in vivo work
notes: also called peptope p66

Key:
[1] = molecular target: BSA (UniProt P02769 25-607); assay: EuLISA, BSA-blocked wells without fibrils, p66 then 11-1F4
[2] = molecular target: T1, synthetic Aβ(1-40) amyloid fibrils (UniProt P05067 672-711); assay: EuLISA, fibrils coated, p66 added and washed, detected by 11-1F4
T1 construct: domain: Aβ(1-40); Fibrillar aggregate; 1-40 counts on the Aβ peptide, not on the precursor

[3] = molecular target: B1; assay: EuLISA, peptide coated, 11-1F4 titrated from 100 nM

T1 sequence (P05067 672-711 limits assumed): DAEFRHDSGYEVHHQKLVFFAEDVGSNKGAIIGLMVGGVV
BSA, sequence (P02769 25-607 limits assumed): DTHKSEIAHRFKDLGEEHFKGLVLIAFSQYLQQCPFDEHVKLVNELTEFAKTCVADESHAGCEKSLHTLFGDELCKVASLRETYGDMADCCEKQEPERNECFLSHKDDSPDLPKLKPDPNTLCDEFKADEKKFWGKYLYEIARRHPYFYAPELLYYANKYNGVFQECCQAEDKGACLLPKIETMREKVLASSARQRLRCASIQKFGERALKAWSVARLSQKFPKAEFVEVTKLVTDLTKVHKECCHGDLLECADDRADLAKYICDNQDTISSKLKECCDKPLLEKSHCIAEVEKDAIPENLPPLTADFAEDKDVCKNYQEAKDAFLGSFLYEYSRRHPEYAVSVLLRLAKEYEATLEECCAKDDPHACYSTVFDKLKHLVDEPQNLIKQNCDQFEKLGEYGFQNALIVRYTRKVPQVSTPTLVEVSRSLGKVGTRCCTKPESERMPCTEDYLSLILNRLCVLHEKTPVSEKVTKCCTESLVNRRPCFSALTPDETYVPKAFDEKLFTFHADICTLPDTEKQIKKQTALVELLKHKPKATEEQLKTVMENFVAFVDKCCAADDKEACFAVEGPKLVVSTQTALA

binding result [2]	EC50 [3]	Binder	binding result [1]
binds	–	B1	no binding (tested: 100 µl of a 0.83 mM stock solution)
–	~500 pM	murine 11-1F4 monoclonal antibody (antibody, V domains shown) VH: QVQLKESGPGLVAPSQSLSITCTVSGFSLSSYGVSWVRQPPGKGLEWLGVIWGDGSTNYHPNLMSRLSISKDISKSQVLFKLNSLQTDDTATYYCVTLDYWGQGTSVTVSS VL: DVVMTQTPLSLPVSLGDQASISCRSSQSLVHRNGNTYLHWYLQKPGQSPKLLIYKVSNRFSGVPDRFSGSGSGTDFTLKISRVEAEDLGLYFCFQTTYVPNTFGGGTKLEIK	–
